Substrate in this test: CC chemokine receptor 5 (CCR5), clone 8.5 cDNA, stably expressed on HEK 293 cells (human), P51681
Description: homologous competition against ^125I-RANTES on CCR5.1 cells, 37° C. The conditions noted are these: remark: other sources report otherwise.

CC chemokine receptor 5 (CCR5), clone 8.5 cDNA, stably expressed on HEK 293 cells (human), P51681, sequence (P51681 whole entry): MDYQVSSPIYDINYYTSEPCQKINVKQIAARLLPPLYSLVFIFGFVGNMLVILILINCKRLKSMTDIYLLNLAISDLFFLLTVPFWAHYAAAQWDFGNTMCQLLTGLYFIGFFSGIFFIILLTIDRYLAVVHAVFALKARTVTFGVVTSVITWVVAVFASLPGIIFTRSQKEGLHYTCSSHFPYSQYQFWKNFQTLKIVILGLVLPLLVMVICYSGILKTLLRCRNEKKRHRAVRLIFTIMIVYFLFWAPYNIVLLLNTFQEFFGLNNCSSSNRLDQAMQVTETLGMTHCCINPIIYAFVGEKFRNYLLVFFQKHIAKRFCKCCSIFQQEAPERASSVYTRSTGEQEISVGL

B1: RANTES, P13501 24-91 (ligand, human, UniProt P13501 24-91, looked up)
chain: SPYSSDTTPCCFAYIARPLPRAHIKEYFYTSGKCSNPAVVFVTRKNRQVCANPEKKWVREYINSLEMS
Usually IC50 stands for the point on the concentration scale where inhibition reaches its midpoint. Take B1: the IC50 turned out to be 80 nM.

For the origin of these results see patent publication US7151087.
